± gives the half width of the 95% confidence interval.
How the values were obtained:
[1] = folding stability dG unfold from trypsin proteolysis; higher = more stable
How it was run: (§1)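 K50 was inferred by Bayesian fitting of sequencing counts obtained after protease digestion of designed mini-proteins. Unfolding free energy was derived by comparison with a sequence-predicted unfolded-state K50 and a shared folded-state K50, for each protease or both combined. The mini-proteins were under 80 residues, had no cysteine, were carried in a PA-tagged cDNA display construct, and were kept only if AlphaFold2 dimer inter-PAE exceeded 15.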

[2] = folding stability dG unfold from chymotrypsin proteolysis; higher = more stable
How it was run: as §1

[3] = folding stability dG unfold (combined trypsin and chymotrypsin); higher = more stable
How it was run: as §1

| Sequence | folding stability dG unfold [1] [kcal/mol] | folding stability dG unfold [2] [kcal/mol] | folding stability dG unfold [3] [kcal/mol] |
| --- | --- | --- | --- |
| SAGGMRIYIPPELPEEKVEEIREEAEEEFPVEVTLERFPEPGYVVLEFEGEEEELYRRIEEKIREKGSAGGS [r16_227_TrMRF] | 1.17 ± 0.16 | 1.42 ± 0.35 | 1.55 ± 0.41 |
| SAGGSAGGSAGGMYITFDFEVPPNNPEVIEELKSKGIEYKKIEPKPDKVKVKVIIPEKLLSAGGSAGGSAGG [r7_41_JUSTAS] | -0.638 ± 0.3 | -0.12 ± 0.27 | -0.38 ± 0.27 |
| SAKPIPLKNVTINMYKDEKGNYYFKVTLNDKFIGEFEFETTEEALEGAIELAKEIEKIYGPNNIKIKNESAG [r14_791_TrMRF] | 2.33 ± 0.2 | 2.7 ± 0.067 | 2.64 ± 0.31 |
| SAGGPKVEIVDITVTEEEVNGKKKKTVTVKVKLENGETLTITMSEEELKKLGLSVEEIAKKLAKKLKSAGGS [r16_625_TrROS_Hall] | 1.54 ± 0.035 | 2.38 ± 0.044 | 2.09 ± 0.15 |
| SAGGSAGGDGLELKLTFTIPVTARSPLGGSYPVYLRLTLTYRLDDPRWELDLYALDPNGNWYPVSAGGSAGG [r6_393_TrMRF] | 3.66 ± 0.18 | 5.12 ± 0.092 | 4.84 ± 0.1 |
| SAGGMTIVEKDGKLVLKITVTVPPGTTVEELKNALKELFGVEEVKVVKIEKNENGEITITVEAVFPKSAGGS [r16_234_TrROS_Hall] | 2.59 ± 0.12 | 3.31 ± 0.13 | 3.03 ± 0.11 |
| SAGGSAPKIRVEIEIDPDNGTIKLEVQHDGKPVFEMTMRIDPNGKIKEMKFTFYVDPDNGKLEIMMSAGGSA [r15_770_TrROS] | 3.68 ± 0.25 | 4.59 ± 0.26 | 4.43 ± 0.17 |
| SAGGSAGGSMTIVIKVKSKEDALEAAKALLAELGIEEGAEVKKIEVEEVDPENKEYYVRIEVKSAGGSAGGS [r12_999_TrROS_Hall] | 1.72 ± 0.13 | 1.7 ± 0.029 | 1.75 ± 0.14 |
| SMSIELDAESIEEIADFLKKAIEDGNPDAKIRIELYPLGGEREEREYDSIDEIIAELKKGPARIRIELEPSA [r9_589_TrMRF] | 1.36 ± 0.037 | 2.29 ± 0.11 | 1.88 ± 0.11 |
| SAGGSAGGKKKVKYYKIKEVKIEKDEDGNYTITVKVDGKTFTITIPKEKIKPGMKLKDIVIKIKSAGGSAGG [r6_255_TrROS_Hall] | 1.91 ± 0.041 | 3.57 ± 0.038 | 3.16 ± 0.11 |
| SAGGAVVTPETEGDRTFVTTTDPESGSRTVTVTTYDPTTNTATTTTYFVPPDGVPTRVATTTTPLPPTSAGG [r13_768_JUSTAS] | 1.2 ± 0.077 | 1.49 ± 0.097 | 1.44 ± 0.13 |
| SAGGSAGGSAGDDNDGKKKFPMTIKIPPIPIEIPPGMKITSWIPIRIPGGLEFPIIYITPSAGGSAGGSAGG [r11_388_TrROS] | 0.923 ± 0.045 | 1.1 ± 0.12 | 1.03 ± 0.098 |
| SAGGSAGGSGMKITSISKLPDGSYLVTTQDPGKGTPTTVPFSTPEEGKKLKKELEEKGGKVELSAGGSAGGS [r20_177_JUSTAS] | -0.0663 ± 0.1 | -0.0692 ± 0.11 | -0.0711 ± 0.18 |
| SAGGSAGGSAGGPLPGKPPLRLKLFTLTVRTRTYRKTEDGTWEEVEESEAEITVLVLEPVSAGGSAGGSAGG [r7_506_TrROS_Hall] | 3.45 ± 0.11 | 4.99 ± 0.17 | 4.71 ± 0.14 |
| SAGGSAGGSAGMEFEVLEVIPPELLAEGGEITVGLPDGERLLVRVSPDGGVKEVRLLPPESAGGSAGGSAGG [r17_2_TrMRF] | 0.811 ± 0.12 | -0.435 ± 0.22 | 0.236 ± 0.16 |
| SKKKKIKKITLTFTTSDGSTITIEIDADQTVTITLPDGSTITITFDKDTGILTITVTNKDGSKQEFKIELSA [r9_99_TrROS_Hall] | 1.82 ± 0.075 | 3.08 ± 0.051 | 2.6 ± 0.11 |
| SAGGDKLEDLPLEDVEVLRVEVIPLPDGGVLVVFEFKVSDEEGPERLVRVVVLVENDEARVFVEPLGSAGGS [r16_469_TrMRF] | 2.05 ± 0.085 | 3.2 ± 0.081 | 2.91 ± 0.13 |
| SAGGSAGGSPIEEIVAELKVPPGTTVKFPDGSTITLNSREDLLKLAKEGYPPEKLKDITVEAVSAGGSAGGS [r12_430_JUSTAS] | 0.308 ± 0.071 | 1.08 ± 0.059 | 0.856 ± 0.089 |
| SMKPGAEITIEPFPDGMYKITLPDGRERIFSPNGIAIEITPNKIKIEMFHPGKPIMEMEVEIPPPDPNDPSA [r9_901_TrROS] | 0.912 ± 0.19 | 0.771 ± 0.16 | 0.987 ± 0.43 |
| SAGGSAGGSAGLIVTHPDGGVTTLRLTLTFTFEGPVGPPKTVTFEFTLTVAPNGTEVTLESAGGSAGGSAGG [r11_271_TrMRF] | 3.34 ± 0.16 | 5.11 ± 0.11 | 4.72 ± 0.27 |
| SAMIEIEIEVEEREDGRLIVRVRIRNKETGEEIELELEMSREEVEKLLEELKKLFPNLEIVEVEIRELPSAG [r14_969_TrROS_Hall] | 4 ± 0.15 | 3.29 ± 0.24 | 3.98 ± 0.45 |

Reference: the supplement of paper PMC12764529
